“And” between values parts separate entries of the source, which are not always exact repeats. Equal values may be shown once. Read-outs that look alike come from different tables or passages of the source.
Key:
[1] = KARI assay in 100-μL scale to measure pH optimum; type: biochemical; conditions: pH 6.0-8.5, NADPH
Protocol: Assay buffers were prepared containing 100 mM potassium phosphate with pH values ranging from 6.0-8.5 in 0.5-steps, 1 mM DTT, 10 mM MgCl2, 2.5 mM acetolactate, and 200 μM NADPH (final concentrations). Ten μL purified enzyme were placed into a flat-bottom assay plate (Evergreen Scientific). The reactions were initiated by addition of 90 μL assay buffer. The change in absorbance at 340 nm was monitored over 1 min in a plate reader (TECAN).

[2] = system: S. cerevisiae host strain GEVO3956; experiment: Shake flask isobutanol fermentations with KARI as limiting pathway enzyme; type: cell-based; conditions: mean of 3 experiments
Description: In this example, a series of KARI genes were individually expressed from a yeast promoter in conjunction with other components of an isobutanol production pathway in yeast such that KARI was the limiting enzyme in the pathway and the amount of isobutanol produced during a fermentation was dependent on the KARI activity level. In this system, the S. cerevisiae host strain GEVO3956 was used to produce isobutanol when supplied with an isobutanol production pathway plasmid expressing ALS and KIVD, and a low copy number plasmid expressing KARI, DHAD, and ADH enzymes.
Shake flask fermentations using GEVO3956 carrying these individual plasmids were performed together with GEVO3956 carrying pGV3022 (derived from pGV3009 but containing the E. coli ilvC-coSc gene expressed from the Sc_PDC1^−350 promoter) and GEVO3956 carrying pGV3012 (equivalent to pGV3009 lacking the Sc_PDC1^−350 promoter and KARI gene) for comparison of isobutanol production. The shake flask fermentations were performed as follows. The strains were grown overnight in 3 mL of YPD medium containing 1% v/v ethanol and 0.1 g/L G418 at 30° C. and 250 rpm. The OD600 of these cultures was determined after overnight growth and the appropriate amount of culture was added to 50 mL of YP medium containing 5% w/v glucose, 1% v/v ethanol. 200 mM MES, pH 6.5, and 0.1 g/L G418 to obtain an OD600 of 0.1 in 250 mL baffled flasks with sleeve caps. Cultures were incubated at 30° C. and 250 rpm overnight. The OD600 of these cultures was determined after overnight growth and the appropriate amount of culture to total 250 ODs was added to 50 mL Falcon tubes and centrifuged at 2700×g for 5 minutes. The supernatant was removed and cells were resuspended in 50 mL of YP medium containing 8% w/v glucose, 1% v/v ethanol, 200 mM MES, pH 6.5, and 0.1 g/L G418 to obtain a final OD600 of 5 OD per ml. At t=0 the OD600 of each flask was determined. The fermentation cultures were incubated at 30° C. and 250 rpm in non-baffled 250 mL flasks with vented screw cap tops. After 24, 48 and 72 hours of incubation, 1.5 mL of culture was removed into 1.5 mL microcentrifuge tubes from each culture. OD600 values were determined from the samples and the remainder of each sample was centrifuged for 10 min at 14,000 rpm in a microcentrifuge and 1 mL of the supernatant was removed to be submitted for gas chromatographic analysis. Analysis of volatile organic compounds, including ethanol and isobutanol, was performed on an Agilent 6890 gas chromatograph (GC) fitted with a 7683B liquid autosampler, a split/splitless injector port, a ZB-FFAP column (Phenomenex 30 m length, 0.32 mm ID, […] film thickness) connected to a flame ionization detector (FID). […]

[3] = KARI assay in 1-mL scale to measure NADPH KM value (Example 5); type: biochemical; conditions: for Km: Example 5, pH 7.0
Protocol: KARI activity was assayed kinetically by monitoring the decrease in NADPH or NADH concentration by measuring the change in absorbance at 340 nm. An assay buffer was prepared containing 100 mM potassium phosphate pH 7.0, 1 mM DTT, 2.5 mM (S)-2-acetolactate, and 10 mM MgCl2 (final concentrations in the 1-mL assay). Twenty μL purified enzyme and 960 μL of the assay buffer were placed into a 1-mL cuvette. The reaction was initiated by addition of 20 μL NADPH or NADH (200 μM final concentration) for a general activity assay. Michaelis-Menten constants for the cofactors were determined with varying concentrations of NADPH or NADH (200-12 μM final).

[4] = KARI assay of purified S. exigua KARI and variants with NADH (Examples 6-9); type: biochemical
How it was run: (§1)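 Kinetic read of NAD(P)H consumption at 340 nm in 100 mM potassium phosphate pH 7.0 with 1 mM DTT, 2.5 mM (S)-2-acetolactate and 10 mM MgCl2, cofactor 200 μM final. For Michaelis–Menten constants, NADPH was varied 200–12 μM and NADH 200–6 μM.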

[5] = KARI assay of purified S. exigua KARI and variants with NADPH (Examples 6-9); type: biochemical; conditions: for U/mg NADPH (specific activity): cofactor NADPH
How it was run: as §1

B1: E. coli IlvC: Escherichia coli ketol-acid reductoisomerase (ilvC), wild type (protein, UniProt P05793 2-491, looked up)
Ketol-acid reductoisomerase …: ANYFNTLNLRQQLAQLGKCRFMGRDEFADGASYLQGKKVVIVGCGAQGLNQGLNMRDSGLDISYALRKEAIAEKRASWRKATENGFKVGTYEELIPQADLVINLTPDKQHSDVVRTVQPLMKDGAALGYSHGFNIVEVGEQIRKDITVVMVAPKCPGTEVREEYKRGFGVPTLIAVHPENDPKGEGMAIAKAWAAATGGHRAGVLESSFVAEVKSDLMGEQTILCGMLQAGSLLCFDKLVEEGTDPAYAEKLIQFGWETITEALKQGGITLMMDRLSNPAKLRAYALSEQLKEIMAPLFQKHMDDIISGEFSSGMMADWANDDKKLLTWREETGKTAFETAPQYEGKIGEQEYFDKGVLMIAMVKAGVELAFETMVDSGIIEESAYYESLHELPLIANTIARKRLYEMNVVISDTAEYGNYLFSYACVPLLKPFMAELQPGDLGKAIPEGAVDNGQLRDVNEAIRSHAIEQVGKKLRGYMTDMKRIAVAG
[1]
  optimum pH: 7.5
[2]
  48 h isobutanol Titer: 3.93 ± 1.16 g/L
  72 h isobutanol Titer: 4.72 ± 0.90 g/L
[3]
  NADPH KM, times higher than NADPH KM for S. exigua KARI: ~20 fold
  Km: 20 ± 3 µM

B2: Se1_KARI: Slackia exigua (ATCC 700122) ketol-acid reductoisomerase, wild type, SEQ ID NO: 2 (protein, listed as Slackia exigua)
chain: MSVKTKEKEMAVTILYEQDVDPKVIQGLKVGIIGYGSQGHAHALNLMDSGVDVRVGLREGSSSWKTAEEAGLKVTDMDTAAEEADVIMVLVPDEIQPKVYQEHIAAHLKAGNTLAFAHGFNIHYGYIVPPEDVNVIMCAPKGPGHIVRRQFTEGSGVPDLACVQQDATGNAWDIVLSYCWGVGGARSGIIKATFAEETEEDLFGEQAVLCGGLVELVKAGFETLTEAGYPPELAYFECYHEMKMIVDLMYESGIHFMNYSISNTAEYGEYYAGPKVINEQSREAMKEILKRIQDGSFAQEFVDDCNNGHKRLLEQREAINTHPIETTGAQIRSMFSWIKKED
[1]
  optimum pH: 7
[1]; listed as S. exigua KARI
  optimum pH: approximately 7.0
[2]
  48 h isobutanol Titer: 2.82 ± 0.11 g/L
  72 h isobutanol Titer: 4.40 ± 0.34 g/L
[4]
  kcat NADH: 0.40 s⁻¹
[4]; cofactor NADH
  U/mg NADH (specific activity): 0.15 U/mg
[4]; listed as Se1_KARI (wt)
  kcat NADH: 0.40 s⁻¹
  kcat/Km ratio NADH/NADPH (cofactor specificity): 0.08
[4]; listed as Se1_KARI^his6
  kcat NADH: 0.4 s⁻¹
  kcat/Km ratio NADH/NADPH (cofactor specificity): 0.08
[4]; read-out: Km for cofactor NADH
  Km: 45 µM
[4]; specific activity ratio
  Ratio NADH/NADPH (U/mg): 0.47
[5]
  kcat NADPH: 0.80 s⁻¹
  U/mg NADPH (specific activity): 0.32 ± 0.03 U/mg
[5]; listed as Se1_KARI (wt)
  U/mg NADPH (specific activity): 0.32 U/mg
  kcat NADPH: 0.80 s⁻¹
[5]; listed as Se1_KARI^his6
  U/mg NADPH (specific activity): 0.32 U/mg and 0.32 ± 0.03 U/mg
  kcat NADPH: 0.8 s⁻¹
[5]; read-out: Km for cofactor NADPH
  Km: < 1 µM
[3]
  Km: < 1 µM
